This passage reports percent of Climp63 in the pellet (microtubule fraction) results from paper PMC6931119.

The target of this experiment is microtubules (human (endogenous in HEK293T)) (UniProt P68363). The experiment can be described thus: co-sedimentation; microtubule co-sedimentation assay of HEK293T cells with overexpressed Climp63-HA and GFP or GFP-Calu1; 37°C; P pellet = microtubule fraction, S supernatant = free tubulin fraction.
Chain of UniProt P68363 (P68363 whole entry, chain 1 of 2): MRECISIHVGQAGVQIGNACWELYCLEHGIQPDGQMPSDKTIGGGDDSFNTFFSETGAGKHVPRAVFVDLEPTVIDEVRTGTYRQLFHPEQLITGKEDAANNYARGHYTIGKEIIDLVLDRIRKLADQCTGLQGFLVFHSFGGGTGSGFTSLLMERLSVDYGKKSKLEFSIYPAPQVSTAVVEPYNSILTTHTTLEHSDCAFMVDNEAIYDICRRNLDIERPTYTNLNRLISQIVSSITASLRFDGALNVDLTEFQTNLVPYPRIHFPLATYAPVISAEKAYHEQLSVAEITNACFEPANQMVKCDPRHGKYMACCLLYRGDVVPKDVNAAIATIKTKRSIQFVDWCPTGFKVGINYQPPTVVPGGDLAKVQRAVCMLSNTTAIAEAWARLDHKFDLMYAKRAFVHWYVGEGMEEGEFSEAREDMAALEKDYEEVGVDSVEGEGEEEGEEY
Chain of UniProt P68363 (P07437 whole entry, chain 2 of 2, further chain): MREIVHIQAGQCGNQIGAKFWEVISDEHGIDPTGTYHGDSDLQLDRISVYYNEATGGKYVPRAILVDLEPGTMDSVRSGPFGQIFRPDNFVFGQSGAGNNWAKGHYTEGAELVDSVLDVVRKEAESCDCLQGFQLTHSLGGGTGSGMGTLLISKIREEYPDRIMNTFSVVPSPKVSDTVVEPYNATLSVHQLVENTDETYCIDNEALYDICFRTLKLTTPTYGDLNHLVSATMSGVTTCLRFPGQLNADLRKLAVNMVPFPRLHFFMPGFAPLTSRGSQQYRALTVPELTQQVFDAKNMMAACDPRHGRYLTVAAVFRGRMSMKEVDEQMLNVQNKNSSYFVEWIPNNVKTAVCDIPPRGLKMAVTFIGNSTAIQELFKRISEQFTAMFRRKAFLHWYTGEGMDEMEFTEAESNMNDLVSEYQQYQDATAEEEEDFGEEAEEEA

Chain of Climp63-HA (Q07065 whole entry): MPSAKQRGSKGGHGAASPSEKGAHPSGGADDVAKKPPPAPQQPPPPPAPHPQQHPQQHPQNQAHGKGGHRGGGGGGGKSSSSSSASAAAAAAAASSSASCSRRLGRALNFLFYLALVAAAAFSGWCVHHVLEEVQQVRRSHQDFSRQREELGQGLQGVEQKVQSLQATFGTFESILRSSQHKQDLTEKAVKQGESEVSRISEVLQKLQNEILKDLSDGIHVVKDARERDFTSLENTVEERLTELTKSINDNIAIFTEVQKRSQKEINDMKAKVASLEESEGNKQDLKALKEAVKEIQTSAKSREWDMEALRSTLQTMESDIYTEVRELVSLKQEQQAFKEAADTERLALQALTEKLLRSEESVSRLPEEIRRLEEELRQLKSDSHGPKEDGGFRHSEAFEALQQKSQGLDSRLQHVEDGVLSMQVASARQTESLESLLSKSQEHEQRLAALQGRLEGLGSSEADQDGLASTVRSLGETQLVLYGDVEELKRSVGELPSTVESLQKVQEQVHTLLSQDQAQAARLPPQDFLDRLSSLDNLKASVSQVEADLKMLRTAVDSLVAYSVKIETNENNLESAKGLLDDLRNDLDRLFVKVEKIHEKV

As for “Climp63-HA (from UniProt Q07065 1-602) (natural protein)”, the percent of Climp63 in the pellet (microtubule fraction) at 37°C, GFP overexpressed worked out at 60% and the percent of Climp63 in the pellet (microtubule fraction) at 37°C, GFP-Calu1 overexpressed turned out to be 36%.
